Data reported in EP2105501A1 (Immatics Biotechnologies GmbH, dated 2009).

Molecular target: T1, HLA-A*0205 (human)
T1 construct: Native HLA immunoprecipitated from shock-frozen tumor tissue
Experiment: HLA immunoprecipitation from glioblastoma tissue, peptide elution, ESI-LCMS/MS

binding result: binds
B1: PTP-001 (peptide)
peptide: ALTTLMHQL
notes: Natural HLA ligand eluted from glioblastoma tissue
